Key:
Experiment in all cases: fluorescence polarization
[1] = biological target: pNOB8 ParA(K270E) (Sulfolobus NOB8H2, plasmid pNOB8) (UniProt O93708); settings: FP: 25 mM Tris-HCl pH 7.5, 100 mM NaCl, 1 nM 5'-fluorescein DNA, with ATP/AMPPNP, ADP or no nucleotide; temperature not stated. Crystals: 20% PEG 4000, 10% …
[2] = biological target: pNOB8 ParA(K58E) (Sulfolobus NOB8H2, plasmid pNOB8) (UniProt O93708); settings: FP: 25 mM Tris-HCl pH 7.5, 100 mM NaCl, 1 nM 5'-fluorescein DNA, with ATP/AMPPNP, ADP or no nucleotide; temperature not stated. Crystals: 20% PEG 4000, 10% …
[3] = biological target: pNOB8 ParA(R52E-K218E) (Sulfolobus NOB8H2, plasmid pNOB8) (UniProt O93708); settings: FP: 25 mM Tris-HCl pH 7.5, 100 mM NaCl, 1 nM 5'-fluorescein DNA, with ATP/AMPPNP, ADP or no nucleotide; temperature not stated. Crystals: 20% PEG 4000, 10% …
[4] = biological target: pNOB8 ParA(R52E-K221E) (Sulfolobus NOB8H2, plasmid pNOB8) (UniProt O93708); settings: FP: 25 mM Tris-HCl pH 7.5, 100 mM NaCl, 1 nM 5'-fluorescein DNA, with ATP/AMPPNP, ADP or no nucleotide; temperature not stated. Crystals: 20% PEG 4000, 10% …
[5] = biological target: pNOB8 ParA (Sulfolobus NOB8H2, plasmid pNOB8) (UniProt O93708); settings: FP: 25 mM Tris-HCl pH 7.5, 100 mM NaCl, 1 nM 5'-fluorescein DNA, with ATP/AMPPNP, ADP or no nucleotide, temperature not stated. Crystals: 20% PEG 4000, 10% …

TGACGCCGGCGTCA (double strand) [14mer nsDNA, FP probe]
Kd [1]: 300 nM | Kd [2]: 274 nM | Kd [3]: 3.19 µM | Kd [4]: 5.93 µM | Kd ([5]; AMPPNP, stoichiometry ~1 ParA dimer to 2 duplexes at 1 uM DNA): 116 nM | Kd [5]: 120 nM
